Reference: PMC13038408

Target: RSV90 IgG (human)
Assay: SPR

RSV90 IgG (human), sequence (heavy, as listed by the source, chain 1 of 2): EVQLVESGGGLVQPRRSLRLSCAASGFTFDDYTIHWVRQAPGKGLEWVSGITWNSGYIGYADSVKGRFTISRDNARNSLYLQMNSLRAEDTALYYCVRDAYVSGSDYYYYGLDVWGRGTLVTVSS
RSV90 IgG (human), sequence (light, as listed by the source, chain 2 of 2): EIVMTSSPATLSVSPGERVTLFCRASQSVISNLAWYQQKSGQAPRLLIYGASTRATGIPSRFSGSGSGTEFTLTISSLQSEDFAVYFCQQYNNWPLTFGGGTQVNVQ

| Binder | Kd [µM] |
| --- | --- |
| RSVF-multi-3 (designed binder) DDLVDIFLRAFAKAAKVTRFDKNRGIIKTFSEEETEKLFKSLTEEEVEKIESALKSTNKAVVVLGDGDIEIEIDLDKLYALINDLDISNDQKKEMSNNFFEYLRKIAKK | > 10 |
| RSVF-multi-4 (designed binder) MKLVIARVKSPKVKRLSEEDIEKIKSALKSTNKAVVTIKDENGEEIEVEVRLLTLEEALKYINDLPISNDAKKLMSNNIHKALEPGRTVVFGPEGCEERDKNRGIIKTFSTDVKLDETYFFFRVE | > 10 |
